B1: ILLELFTHV (SEQ ID NO: 25) (peptide)
peptide: ILLELFTHV
notes: synthetic peptide; source genes FBXO6, FBXO44
B2: GLGPNLVGV (SEQ ID NO: 23) (peptide)
peptide: GLGPNLVGV
notes: synthetic peptide; source genes SLC25A36, SLC25A33

In patent US20170260249A1 (IMMATICS BIOTECHNOLOGIES, published 2017) one finds peptide exchange yield data, which are given here for 53 molecules.

Bounds are passed on as bounds.

In this assay the target is HLA-A*02:01 (peptide-receptive MHC class I molecule, heavy chain with beta-2-microglobulin) (human). In words: UV-ligand exchange, anti-b2m ELISA; peptide exchange yield grade (>10% = +; >20% = ++; >50 = +++; >75% = ++++). The text has this: Candidate peptides for T cell based therapies according to the present invention were further tested for their MHC binding capacity (affinity). The individual peptide-MHC complexes were produced by UV-ligand exchange, where a UV-sensitive peptide is cleaved upon UV-irradiation, and exchanged with the peptide of interest as analyzed. Only peptide candidates that can effectively bind and stabilize the peptide-receptive MHC molecules prevent dissociation of the MHC complexes. To determine the yield of the exchange reaction, an ELISA was performed based on the detection of the light chain (β2m) of stabilized MHC complexes. The assay was performed as generally described in Rodenko et al. (Rodenko et al., 2006).
96 well MAXISorp plates (NUNC) were coated over night with 2 ug/ml streptavidin in PBS at room temperature, washed 4× and blocked for 1 h at 37° C. in 2% BSA containing blocking buffer. Refolded HLA-A*02:01/MLA-001 monomers served as standards, covering the range of 15-500 ng/ml. Peptide-MHC monomers of the UV-exchange reaction were diluted 100 fold in blocking buffer. Samples were incubated for 1 h at 37° C., washed four times, incubated with 2 ug/ml HRP conjugated anti-β2m for 1 h at 37° C., washed again and detected with TMB solution that is stopped with […]. Absorption was measured at 450 nm. Candidate peptides that show a high exchange yield (preferably higher than 50%, most preferred higher than 75%) are generally preferred for a generation and production of antibodies or fragments thereof, and/or T cell receptors or fragments thereof, as they show sufficient avidity to the MHC molecules and prevent dissociation of the MHC complexes.
(An ELISA detects its analyte on a solid surface through an enzyme-linked reagent.)
In the case of SVMELLQGV (synthetic peptide; source gene TRIM5) [SVMELLQGV (SEQ ID NO: 8)], the peptide exchange yield is > 75%.
Then YIDDIFSGV (synthetic peptide; source gene TEX9) [YIDDIFSGV (SEQ ID NO: 41)], with > 75%; and SLLSDIIAL (synthetic peptide; source gene PIGQ) [SLLSDIIAL (SEQ ID NO: 36)], with 50 to 75%.
To SILSLLIKL (synthetic peptide; source gene UBR3) [SILSLLIKL (SEQ ID NO: 7)] belongs 20 to 50%; to KLLDNLHDL (synthetic peptide; source gene PGR) [KLLDNLHDL (SEQ ID NO: 1)], > 75%; to TLLPTLYEI (synthetic peptide; source gene RNF180) [TLLPTLYEI (SEQ ID NO: 35)], 50 to 75%.
Then SLFDEVRQI (synthetic peptide; source gene STX18) [SLFDEVRQI (SEQ ID NO: 5)], with > 75%; and ALLELLHEL (synthetic peptide; source gene LEMD2) [ALLELLHEL (SEQ ID NO: 49)], with > 75%; and KLWEESTAQV (synthetic peptide; source gene C1orf173) [KLWEESTAQV (SEQ ID NO: 17)], with 50 to 75%.
Consider FLNGLEILL (synthetic peptide; source gene MDN1) [FLNGLEILL (SEQ ID NO: 44)], for which the peptide exchange yield is > 75%.
On to SMTTNLDLKV (synthetic peptide; source gene TMEM202) [SMTTNLDLKV (SEQ ID NO: 33)], for which the peptide exchange yield is 20 to 50%.
Then RILDIDIPLSV (synthetic peptide; source gene TFCP2L1) [RILDIDIPLSV (SEQ ID NO: 38)], with 50 to 75%.
Take FLSGYYVTL (synthetic peptide; source gene TMEM101) [FLSGYYVTL (SEQ ID NO: 42)]: the peptide exchange yield was > 75%.
Then GLDEAIRKV (synthetic peptide; source gene GLYATL2) [GLDEAIRKV (SEQ ID NO: 28)], with 50 to 75%.
Then RLDIQGTGQLL (synthetic peptide; source gene PIGR) [RLDIQGTGQLL (SEQ ID NO: 4)], with 50 to 75%.
For the molecule VLLATVTEL (synthetic peptide; source gene SLC35E1) [VLLATVTEL (SEQ ID NO: 37)], the peptide exchange yield fell in the range of 50 to 75%.
To ALLGFVTDL (synthetic peptide; source gene ATP2B4) [ALLGFVTDL (SEQ ID NO: 20)] belongs > 75%.
TLSDVVVGL (synthetic peptide; source gene ELP4) [TLSDVVVGL (SEQ ID NO: 54)] showed a peptide exchange yield of 50 to 75%.
Molecule TLLDRVAVI (synthetic peptide; source gene FRG1B) [TLLDRVAVI (SEQ ID NO: 30)] had a peptide exchange yield of 50 to 75%.
Molecule VLLHVSVLL (synthetic peptide; source gene ZDHHC24) [VLLHVSVLL (SEQ ID NO: 45)] displayed a peptide exchange yield of 20 to 50%.
With ALLTAVTNV (synthetic peptide; source gene LEMD2) [ALLTAVTNV (SEQ ID NO: 31)], the peptide exchange yield is 50 to 75%.
To AIAGRLLGV (synthetic peptide; source gene CLCN5) [AIAGRLLGV (SEQ ID NO: 34)] belongs > 75%; to TLSTVIATV (synthetic peptide; source gene ATN1) [TLSTVIATV (SEQ ID NO: 50)], > 75%.
For SLLSELVEA (synthetic peptide; source gene KLHDC5) [SLLSELVEA (SEQ ID NO: 6)], the peptide exchange yield was > 75%.
To GLLGGVIMMV (synthetic peptide; source gene SLC39A7) [GLLGGVIMMV (SEQ ID NO: 40)] belongs > 75%; to B1, > 75%.
Then ALAPSEGVQAA (synthetic peptide; source gene MSX1) [ALAPSEGVQAA (SEQ ID NO: 12)], with > 75%.
Then ILAETQPEL (synthetic peptide; source gene STX18) [ILAETQPEL (SEQ ID NO: 48)], with 50 to 75%; and GLDGATYTV (synthetic peptide; source gene SEMA4C) [GLDGATYTV (SEQ ID NO: 3)], with 50 to 75%.
For the molecule VLNPETTVV (synthetic peptide; source gene PAPSS1) [VLNPETTVV (SEQ ID NO: 27)], the peptide exchange yield lay in the range of 50 to 75%.
Turning to TVPPVFVSV (synthetic peptide; source gene KCNMA1) [TVPPVFVSV (SEQ ID NO: 51)], the peptide exchange yield lay in the range of 50 to 75%.
SVLAGVVGV (synthetic peptide; source gene GUCY1A2) [SVLAGVVGV (SEQ ID NO: 26)]: the peptide exchange yield was > 75%.
With FLVDSLISA (synthetic peptide; source gene HOXD10) [FLVDSLISA (SEQ ID NO: 14)], the peptide exchange yield is > 75%.
Then VLGPEGQLV (synthetic peptide; source gene GLYATL2) [VLGPEGQLV (SEQ ID NO: 21)], with 50 to 75%.
To ALQNKVVAL (synthetic peptide; source gene NXNL2) [ALQNKVVAL (SEQ ID NO: 13)] belongs 50 to 75%; to ALDGKIYEL (synthetic peptide; source gene ARHGAP5) [ALDGKIYEL (SEQ ID NO: 39)], 50 to 75%.
To ALDPIIHGL (synthetic peptide; source gene PTPRG) [ALDPIIHGL (SEQ ID NO: 11)] belongs > 75%.
GLVEQLYDL (synthetic peptide; source gene NOC2L) [GLVEQLYDL (SEQ ID NO: 47)] yielded a peptide exchange yield of 50 to 75%.
With VLVSSVLGV (synthetic peptide; source gene SIGIRR) [VLVSSVLGV (SEQ ID NO: 22)], the peptide exchange yield lay in the range of 50 to 75%.
To GLLSVELRV (synthetic peptide; source gene DCHS2) [GLLSVELRV (SEQ ID NO: 15)] belongs > 75%.
Consider AILDVVVNL (synthetic peptide; source gene RFX3) [AILDVVVNL (SEQ ID NO: 10)], for which the peptide exchange yield is > 75%.
Consider SLYPGTETM (synthetic peptide; source gene SVIL) [SLYPGTETM (SEQ ID NO: 9)], for which the peptide exchange yield fell in the range of 50 to 75%.
Then VMHDSSFSV (synthetic peptide; source gene ADNP2) [VMHDSSFSV (SEQ ID NO: 53)], with > 75%.
On to YLETMNITL (synthetic peptide; source gene PGM2L1) [YLETMNITL (SEQ ID NO: 19)], for which the peptide exchange yield was in the range of 50 to 75%.
Turning to NMDDVIYYV (synthetic peptide; source gene RNF145) [NMDDVIYYV (SEQ ID NO: 46)], the peptide exchange yield was 50 to 75%.
To B2 belongs > 75%.
With VIANEIEKV (synthetic peptide; source gene APOL4) [VIANEIEKV (SEQ ID NO: 43)], the peptide exchange yield lay in the range of 50 to 75%.
Turning to IGIGPVLNI (synthetic peptide; source gene TMLHE) [IGIGPVLNI (SEQ ID NO: 29)], the peptide exchange yield lay in the range of 10 to 20%.
To ILDAQTAFV (synthetic peptide; source gene ABCC1) [ILDAQTAFV (SEQ ID NO: 24)] belongs 50 to 75%; to ALISEKLETL (synthetic peptide; source gene DNAJC10) [ALISEKLETL (SEQ ID NO: 52)], 50 to 75%.
Regarding VLLDIFTGV (synthetic peptide; source gene LIG3) [VLLDIFTGV (SEQ ID NO: 2)], the peptide exchange yield is > 75%.
To GLIENTYQL (synthetic peptide; source gene RNF175) [GLIENTYQL (SEQ ID NO: 32)] belongs 50 to 75%; to KLNSSIQYV (synthetic peptide; source gene PKHD1L1) [KLNSSIQYV (SEQ ID NO: 16)], 50 to 75%.
